The source of these data is doi:10.1101/2025.09.30.679481.

In the experiment the target is Bicaudal-D (D. melanogaster (endogenous in embryos)) (UniProt P16568). Briefly: co-IP.
UniProt P16568, sequence (P16568 whole entry): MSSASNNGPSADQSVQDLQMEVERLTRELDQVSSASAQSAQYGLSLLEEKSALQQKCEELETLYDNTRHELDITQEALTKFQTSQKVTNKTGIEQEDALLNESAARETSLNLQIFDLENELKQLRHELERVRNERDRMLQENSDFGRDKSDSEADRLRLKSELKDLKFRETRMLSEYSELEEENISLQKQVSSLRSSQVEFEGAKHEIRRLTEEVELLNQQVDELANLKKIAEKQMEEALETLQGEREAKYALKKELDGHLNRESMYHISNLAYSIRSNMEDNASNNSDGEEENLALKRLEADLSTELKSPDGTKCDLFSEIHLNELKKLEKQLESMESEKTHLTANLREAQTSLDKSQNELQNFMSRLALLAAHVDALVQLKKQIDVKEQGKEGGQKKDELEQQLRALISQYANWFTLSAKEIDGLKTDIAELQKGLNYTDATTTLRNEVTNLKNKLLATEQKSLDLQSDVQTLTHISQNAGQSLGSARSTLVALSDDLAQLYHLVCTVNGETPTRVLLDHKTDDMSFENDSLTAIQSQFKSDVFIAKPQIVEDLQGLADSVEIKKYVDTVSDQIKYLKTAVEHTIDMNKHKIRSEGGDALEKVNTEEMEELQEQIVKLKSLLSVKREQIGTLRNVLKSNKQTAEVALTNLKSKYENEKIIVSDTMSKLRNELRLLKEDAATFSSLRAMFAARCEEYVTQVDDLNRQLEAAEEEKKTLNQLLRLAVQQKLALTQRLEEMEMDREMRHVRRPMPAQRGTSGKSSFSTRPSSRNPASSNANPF

Take Imp (natural protein): the reduction of the co-precipitate by RNase amounted to 84%.
